# B1: polyhistidine-tagged human 5MP1 C-terminal domain (aa. 245–419) (domain or fragment, UniProt Q9Y6E2 245-419, looked up)
# chain: FLRVQQSLGTRKELQKELQERLSQECPIKEVVLYVKEEMKRNDLPETAVIGLLWTCIMNAVEWNKKEELVAEQALKHLKQYAPLLAVFSSQGQSELILLQKVQEYCYDNIHFMKAFQKIVVLFYKADVLSEEAILKWYKEAHVAKGKSVFLDQMKKFVEWLQNAEEESESEGEEN
# notes: human eIF5-mimic protein 1 (5MP1, BZW2), CTD, aa; 245-419; Preparation of the construct is described in the Supplementary file; also called 5MP1-CTD; CTD
# B2: human eIF2β 53–136 (domain or fragment, UniProt P20042 53-136, looked up)
# chain: DLEADEEDTRKKDASDDLDDLNFFNQKKKKKKTKKIFDIDEAEEGVKDLKIESDVQEPTEPEDDLDIMLGNKKKKKKNVKFPDE
# notes: human eIF2 beta subunit, residues 53-136, carrying two K-boxes; also called eIF2β_(53–135)
# B3: polyhistidine-tagged full-length human 5MP1 (natural protein, UniProt Q9Y6E2 1-419, looked up)
# chain: MNKHQKPVLTGQRFKTRKRDEKEKFEPTVFRDTLVQGLNEAGDDLEAVAKFLDSTGSRLDYRRYADTLFDILVAGSMLAPGGTRIDDGDKTKMTNHCVFSANEDHETIRNYAQVFNKLIRRYKYLEKAFEDEMKKLLLFLKAFSETEQTKLAMLSGILLGNGTLPATILTSLFTDSLVKEGIAASFAVKLFKAWMAEKDANSVTSSLRKANLDKRLLELFPVNRQSVDHFAKYFTDAGLKELSDFLRVQQSLGTRKELQKELQERLSQECPIKEVVLYVKEEMKRNDLPETAVIGLLWTCIMNAVEWNKKEELVAEQALKHLKQYAPLLAVFSSQGQSELILLQKVQEYCYDNIHFMKAFQKIVVLFYKADVLSEEAILKWYKEAHVAKGKSVFLDQMKKFVEWLQNAEEESESEGEEN
# notes: human eIF5-mimic protein 1 (5MP1, BZW2), full length; Preparation of the construct is described in the Supplementary file; also called BZW2; eIF5-mimic protein 1
# What was measured:
# Test in all cases: ITC; a solution of eIF2β 53–136 injected with human 5MP1 constructs; performed as described previously (16)
# Conditions in all cases: both partners purified
# human eIF2β 53–136 = biological target: B2
# [1] = biological target: B3
# [2] = biological target: B1
Binder,stoichiometry N (human eIF2β 53–136),Kd [1] [nM],Kd [2] [µM]
B1,0.5,,
B2,,~2000,~5
B3,1,,
